# Experiment: yeast display, Sf9 membrane polyspecificity reagent, FACS + sequencing; frameworks hold sequencing errors
# Summary of the method: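 Synthetic nanobody libraries on Saccharomyces cerevisiae BJ5465 were galactose-induced for 36–48 hours, stained 1 hour at 4 °C with 10% biotinylated, detergent-solubilized Sf9 membrane reagent and enriched on streptavidin microbeads. FACS then separated cells into low and high (top ~1%) gates by anti-HA (expression) and streptavidin (reagent binding) fluorescence. Genes were colony-PCR amplified, MiSeq 2 × 250 sequenced and CDR-length filtered. A clone's polyreactivity label is that of its gate of origin.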
row,Sequence,polyreactivity (PSR sort gate)
1,QVQLVESGGGLVQAGGSLSLSCAATGSTFSLYAMGWYIQAPGKERELVAAISSSGGSTYYADSVKGRFTISRDNAKNTVYLQMNSLKPEDTAVYYCAAYRVGSYDYWGQGTQVTVSS,high polyreactivity
2,QVQLVESGGGLVQAGGSLSLSCAAYGFTFERNGMGWYRQAPGKERELVAAISIRGGSTYYADSVKGRFTMSRDNAKNTVSLQMNSLKPEDTAVYYCAVVARRAFDYWGQGTQVTVSS,high polyreactivity
3,QVQLVESGGGLVQAGGSLSLSCAAYGRTFTYYAMGWYRPAPGKERELVAVISSGGRTYYADSVKGRFTISRDNAKITVSFQMNSLKPDDKGVYYCNAASPRYLVEYDFWGQGTQVTVSS,high polyreactivity
4,QVQLVESGGGLVQAGGSLSLSCAAYGRTSPIYAMGWYRQAPGKERELVASITRCTRTNYADSVKGRFTISRDNAKNTVYLQMNSLKPEDTAVYYCAAVSYSYSLNAYDYWGQGTQVTVSS,low polyreactivity
5,QVQLVESGGGLVQAGGSLSLSCAAYGSTFDPNDMGWYRQAPGKERELVAVIDSGDGTTYYADSVKGRFTISRDNAKNTVYLQMNRLKPEDTAVYYCAVDESTSYYDDHEDYWGQGTQVTVSS,low polyreactivity
6,QVQLVESGGGLVQAGGSLSLSCAAYGSTFLRNAMGWYRQAPGKKGSWVATISYDGDSTYYADSVKGRFTISRDNAKNTVYLQMYSLKPEDTAVYYCAASYSLTFWDKDDYWGQGTQVTVSS,low polyreactivity
7,QVQLVESGGGLVQAGGSLSLSCADSAGTFKTNAKGWYRQAPGKERELVAAITGSGTSTYYADSVKGRFTSSRDNAKNTVYFQMNSLKPEDTAVYYCAADKLYQPGIGDDYWGQGTQVTLSS,low polyreactivity
8,QVQLVESGGGLVQAGGSLSLSCASSGSIFVRNVMGWYRQAPWKERELVATIRTRGGSTSYADSVKGRFTISRDNAKNTVYLQMNSLTPEDTAVYYCNARLSYRSAWYYGGDRYDYWGQGTQVTVSS,high polyreactivity
9,QVQLVESGGGLVQAGGSLSLSFAASGRTFGYYDMGRYRQAPGKEREFVAAITWSGGNTYADSVKGRFTISRDNAKNTVYLQMNSLKPEDTAVYYCNAVVRAYYTSIWVPRYDYWGQATQVTVSS,high polyreactivity
10,QVQLVESGGGLVQAGGSLSLSSAATGNIFRNNAMGWYRQAPGKERELGAAISYSGGRTFYADSVKGRFTISRDNAKNTVYLQMNSLKPEDTAVYYCAVTYGRNADDYEYWGQGTQVTVSS,high polyreactivity
11,QVQLVESGGGLVQAGGSLSLTCAASGRIFSYYAMGWYRQAPGKERELVAGISRGTSTYYADSVKGRFTISRDNAKNTVYLQMNSLKPEDTAVYYCAADYFSYYSPYRYGYWGQGTQVTVSS,high polyreactivity
12,QVQLVESGGGLVQAGGSNRLSCAASGFTFYRNVMGWYRQAPGKERELVAARTWNGGTTYYADSEKGRFTISRDTAKSSVYLQMDSLQREDTAVYFCAAASRHTGSYRFYYWGQGTQVTVSS,high polyreactivity
13,QVQLVESGGGLVQAGGSQRLSCAASGRTFRGNAMGWYRQAPGKERELVATINSGGSTNYADSVKGRFTISRDKAKNTVYLQMNSLIPEDTAVYYCAAVKYFRWKYNYWGQGTQVTVSS,high polyreactivity
14,QVQLVESGGGLVQAGGSRRLSCAASGFTFSQYTRGWYRQAPGKERELVAAISSGSSTYYADSVKGRFTISRDNAKNTVYLQMNSLKPEDTAVYYCAARVGWYTWGYYWGQGTQVTVSS,high polyreactivity
15,QVQLVESGGGLVQAGGSRRLSCAASGFTFSSYAMGWYRQAPGKERELVASISWRGGITYYADSVKGRFTISRDNAKNTVYLQMNSLKPEDTAVYYCAAVAFFRPKFYYWGQGTQVTVSS,high polyreactivity
16,QVQLVESGGGLVQAGGSRRLSCAASGLIFYYYAMGWYRQAPGKERELVAAISGSGGSTYYADSVKGRFTISRDNAKNTVYLQMNSLKPEDTAVYYCNKLSWRKYLGYEYWGQGTQVTVSS,high polyreactivity
17,QVQLVESGGGLVQAGGSRRLSCAASGRIFRIYAMGWYRQAPGKERELVAAITWSGGSTYYADSVKGRFPISRDNAKNTVYLQMNSLKPEDTAVYYGAAKARSNKYNYWGQGTQVTVSS,high polyreactivity
18,QVQLVESGGGLVQAGGSRRLSCAASGRIFSQNTRGCYRQAPAKERELVAVISWRCGRTSYSDSVKGRFTISRDNSKNTVFLKMKSLKQEDTAVYYCAASAKLHYYRTYRYNYWGQGTQVTVSS,high polyreactivity
19,QVQLVESGGGLVQAGGSRRLSCAASGRTFVGTAMGWSRQAPGKERELVAAMSGDGSTNYADSVKGRFTISRDNAKNTVYLQMNSLKPEDTAVYYCAADGVTRYYQRTYTRYGYWGQGTQVTVSS,low polyreactivity
20,QVQLVESGGGLVQAGGSRRLSCAASGSIFTGYAMGWYRQSPGKERELVAAINSNGGRTYYADSVKGRFTISRDNAKNTVYLQMNSLKPEDTAVYYCAADSGRGYRYKTFNWGRFYWGQGTQVTVSS,high polyreactivity
21,QVQLVESGGGLVQAGGSRRLSCAASGSTFEYNAMGWYRQAPGKERELVASSTNYADSVKGRFTISRDNAKNTVYLPMNSLKPEDTAVYYCAREQGVNRNHDYWGQGTQVTVSS,low polyreactivity
22,QVQLVESGGGLVQAGGSRRLSCAASGSTFSSYAKGWYRQAPGQERELVAAISSSGSRTYYADSVKGRFTISRDNAKNTVYLQMNSLKPEDTAVYYCAADYYYNTKLDYWGQGSQVTVSS,high polyreactivity

row,Sequence,polyreactivity (PSR sort gate)
1,QVQLVESGGGLVQAGGSRRLSCAGSGRIFHYYAMGWYRPAPGTERELVAAISRTGSTYYADSVKGRFTISRDNAINTVYLQMNSLKPEDTAVYYCAADYWPQSNRWVYFRYGYWGQGTQVTVSS,high polyreactivity
2,QVQLVESGGGLVQAGGSRRLSCDASGRTFGYYAMGWYRQAPGKERELVAAISSSGGSTYYADSVKRRFTISRDNAKNTVYLQMNRLKPEDTAVYYCAADTSDTPDYYYWGPGTQVTVSS,low polyreactivity
3,QVQLVESGGGLVQAGGSRRLSWAASGFIFARNTMGWYRQAPGTERELVAAITKSGGSTYYADSVKGRFTISRDNAKNTVYLQMNILKPEDTAVYYCGARSYTLRGVYFSGYDYWGQGTQVTVSS,low polyreactivity
4,QVQLVESGGGLVQAGGSRSLSCAASGSTFYSYAMGWYRQAPGKERELVAAINWDGVSTYYADSVKGRFTISRDNAKNTVYLQMNSLKPEDTAVYYCAAELFSGYRISGTYYYWGQGTQVTVSS,low polyreactivity
5,QVQLVESGGGLVQAGGSVRLSCAASGLTFQRYAMGGYRQAPGKERELVASITGNGGSTYYADSVKGRFSISRDNAKNTVYLQMNSLKPEDTAVYYCNARRYVRTCQQPLYDYWGQGTQVTVSS,high polyreactivity
6,QVQLVESGGGLVQAGGSVRLSCAASGSIFQYNTMGWYRQAPGKDRELFADINGRGGSTYYADSVKGRFTISRDNAKNTVYLQMNSLKPEDTGVYYCNARVFGGYSKYLFIGRYYWGQGTQVTVSS,low polyreactivity
7,QVQLVESGGGLVQAGGTLRFSCAASGSILEYYTMGWDRQAPGKERELVAAISASGGNTYYADSVKGRFTISRANAKNTVYFQMNSLKPEDTAVYYCNAYYGPRGYGYWGQGTQVTVSS,high polyreactivity
8,QVQLVESGGGLVQAGGTLRISCAPSGRIFNTNAMRWYRQAPGKERELVAGITDSGDSTYYADSVKGRFTISRDNAKNTVYLQMISLKPEDTAVYYCATDPASPYIYDYWGQGTQVTVSS,low polyreactivity
9,QVQLVESGGGLVQAGGTLRLICAASGLTFGRYAMGWYRQAPGKERELVASISQRGGSTYYADSVKGRFTISRDNAKNTVYLQMNSLKPEDTAVYYCAARRYYRGEYDYWGQGTQVTVSS,low polyreactivity
10,QVQLVESGGGLVQAGGTLRLNSAASGRNFYDYAMRWYRQAPGKERELVASISGGGSTDYADSVKGRFTISRDNAKNTVDFQMNSLNPEDTAVYYCAAQYYLYRSRFDYWGQGTQVTVSS,high polyreactivity
11,QVQLVESGGGLVQAGGTLRLRCAASGRTFKDYAMGWYRQAPGKERELVAAISWSGGDTYYADSVKGRFTISRDNAKNTVYFQLNSLKPEDTAVYYCNADPSGVFFYSLEFDYWGQGTQVTVSS,low polyreactivity
12,QVQLVESGGGLVQAGGTLRLSCAASGGTFRRYAMGWYRQAPGKERELVAAISWTGGSTYYADSVKGRFTISRDNAKNTVYLQMNSLKPEDSAVYYCAAVGSSSSKGGYWGQGTQVTVSS,high polyreactivity
13,QVQLVESGGGLVQAGGTLRLSCAASGIIFDRNVMGWYRQAPGKERELVAAITRNGGNTYYADSVKGRFTISRDNAKNTVYLQLNSLKPEDTAVYYCNAKYWPFSRWYYFWGQRTQVTVSS,high polyreactivity
14,QVQLVESGGGLVQAGGTLRLSCAASGIIFLVNAMGWYRQAPGKERELVATITSGGSTYADSVKGRFTISRDNAKNTVYLQMNSLKPEDTAVYYCAAVRRRRNSYGYWGQGTQVTVSS,high polyreactivity
15,QVQLVESGGGLVQAGGTLRLSCAASGIIFNYYAMGWYRHAPGKERELVAAITRGGRTNYADSVKGRFTISRDNAKNTVYLQMNSLKPEDTAVYYCNAPAFYKYKSFYAHSGYDYWGQGTQVTVSS,high polyreactivity
16,QVQLVESGGGLVQAGGTLRLSCAASGITFYLNAMGWYRQAPGKERELVADITVSGGSTYYAVSVKGRFTISRDNVKNTVYLQMNSLKPEDTAVYYCAAKYSSGRVLFEHGYWGQGTQVTVSS,low polyreactivity
17,QVQLVESGGGLVQAGGTLRLSCAASGRIFGYNAMGWYRQAPGKERELVAVISTSGTIRYYADSVKGRFTISRVNAKNTVYLQMKSLKPEDTAVYYCAARYYQRANGFGYWGQGTQVTVSS,low polyreactivity
18,QVQLVESGGGLVQAGGTLRLSCAASGRIFTRYAMGWYRQAPGKERELVAAISYGGGVTYYADSVKGRFTISRDNAKNTVYLQMNSLKPEDTAVYYCATDDPLSQINEKGMDYWGQGTQVTVSS,low polyreactivity
19,QVQLVESGGGLVQAGGTLRLSCAASGRILPRNAMGWSRQAPGKERELVAGISSDGSTNYADSVKGRFTISRDNAKNSVYLQMNILKPEDTAVYYCAADGVYDPYVYGYWGQGTQVTVSS,low polyreactivity
20,QVQLVESGGGLVQAGGTLRLSCAASGRTFDTNAMAWYRQAPGKERELVASITWVGGSTYYADSVKGRFTISRDNAKNTVYLQMNSLKPEDTAVYYCNRDRVSGGKYNYWGQGSQVTVSS,low polyreactivity
21,QVQLVESGGGLVQAGGTLRLSCAASGRTFGFYAMGWYRQAPGKERELVAVITRGGYTSYADSVKGRFTISRDNAKNTVYLQMNSLKPEDTAVYYCAAGWHYWDHRYDYWGQGTQVTVSS,high polyreactivity
